Source: the nanobody polyreactivity screen of Harvey et al. (2022)

Assay: yeast display, Sf9 membrane polyspecificity reagent, FACS + sequencing; frameworks hold sequencing errors
Procedure, shortened: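 A synthetic nanobody library was expressed on Saccharomyces cerevisiae BJ5465 by galactose induction for 36–48 hours. The library was stained for 1 hour at 4 °C with 10% biotinylated, detergent-solubilized Sf9 membrane reagent and enriched with streptavidin microbeads before FACS. Low and high (top ~1%) gates were set on anti-HA fluorescence for expression and streptavidin fluorescence for reagent binding, and each polyreactivity label reflects the gate of origin.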

Sequence	polyreactivity (PSR sort gate)
QVQLVDSGGGLVQAGGSLRLSCAASGITSHYYAMGWYRQAPGKERELVAAITSSGSTYYADSVKGRFTISRDNAKNTVYLQMNSLKPEVTAVYYCATTVWYKKAPYPDGDYWGQGTQVTVSS	low polyreactivity
QVQLVDSGGGLVQAGGSLRLSCAASGLIFEVYAMGWYRQAQGKERELVAAISWRGGSTDYADSVKGRFTISRDNAKNTVYLQMNSLKPEDTAFYYCAKGYRGRTTAGNLWEFDYWGQGTQVTVSS	high polyreactivity
QVQLVDSGGGLVQAGGSLRLSCAASGLIFKLNAMGWYRQAPGKERELVAAIRASTGSTYYADSVKGRFTISRDNAKNTVYLQMNSLKPEDTADYYCAVRLRWYFFLMDYWGQGTQVTVSS	high polyreactivity
QVQLVDSGGGLVQAGGSLRLSCAASGLIFPYNAMGWYRQAPGKERELVAAIDSGVTTYYADSVKGRFTISRDNAKNTVYLQMNSLKPEDTAVYYCAAVGLPGPEGDSWGQGTQVTVSS	low polyreactivity
QVQLVDSGGGLVQAGGSLRLSCAASGLTFYHYTMGWYRQAPGKERELVPAITKNGGSTYYADSVKGRFTISRDNAKNTVYLQMNSLKPEDSAVYYCAAYEFGLLRYYSGRSYYYWGQGTQVTVSS	high polyreactivity
QVQLVDSGGGLVQAGGSLRLSCAASGNTFGINDMGWYRKAPGKERELVAAIRISGGSTYYADSVKGRFTISRDNAKNTVYLQMNSLKPEDTAVYYCAKYGPRASLYRTGRYYWGQGTQVTVSS	high polyreactivity
QVQLVDSGGGLVQAGGSLRLSCAASGNTFRYYVMGWYRQAPGKERELVAASTSSGGNTYYADSVKGRFTISRDNAKNTVYLQMNSLKPEDTAVYYCAASYDINYYFSDYNYWGQGTQVTVSS	high polyreactivity
QVQLVDSGGGLVQAGGSLRLSCAASGRIFGRYAMGWSRQAPGKESELVASITYRGGGTYYADSVKGRFTISRDNAKNTVYLQMNSLKPEDTAVYYCNAYFAGVLRRNYRGQGTQVTVSS	high polyreactivity
QVQLVDSGGGLVQAGGSLRLSCAASGRIFIGYAMGWNRQAPWRERELVAAITSGGGTYYADSVKARFTISRDNAKNTVYLQMNSLKPEDTAVYFCAGAQRYPIKYYFWGQGTQVTVSS	low polyreactivity
QVQLVDSGGGLVQAGGSLRLSCAASGRIFYAYAMGGYRQAPGKERELVARISASGGNTYYADSVKGRFTISRDNAKNSVYLQMNSLKPEDTAVYYCNKLFWYGRQYDYWGQGTQVTVSS	high polyreactivity
QVQLVDSGGGLVQAGGSLRLSCAASGRIFYSNAMGWYRQAPGKVRELVAAITTSGASTYYADSVKGRFTISRDNAKNTVYLQLISMKPEDTAVYYCATYAVVYPFAMDYWGQGTQVTVSS	low polyreactivity
QVQLVDSGGGLVQAGGSLRLSCAASGRIFYYYAMGWYRQAPGKERELVAAISWNGGTTYYAESVKGRFTISRDNAKNTVYLQINSLKPEDTAVYYCNAVLYRGPPGSRMDYWGQGTQVTVSS	high polyreactivity
QVQLVDSGGGLVQAGGSLRLSCAASGRISSQYAMGWYRQAPGKERELVAAISTSGDRTYYADSVKGRFTISRDNAKNTVYLQMNSLKPEDTAVYYCAKDGPYTYGRDISEYWGQGTQVTVSS	low polyreactivity
QVQLVDSGGGLVQAGGSLRLSCAASGRTCYTNAMGWYRQAPGKERELVAAINRSGGSTYYADSVKGRFTISRDNAKNTVYLQMNSLKPEDTAVYYCNKAFTHTKYLSPIAYEYGYWGQGTQVTVSS	low polyreactivity
QVQLVDSGGGLVQAGGSLRLSCAASGRTFAFNYAMGWYRQAPGKERELVAAISSSGTRTRYADSVKGRFTISRDNAKNTVYLQMNSLKPEDTAVYYCSKRSLGIGRSNYWGQGTQVTVSS	high polyreactivity
QVQLVDSGGGLVQAGGSLRLSCAASGRTFGAYAMGWYRQAPGKERELVATITVSGGSTYYADSVKGRFTISRDNAKNTVYLQMNSLKPEDSAVYYCAAAYDWWQFYSWTIAYDYWGQGTQVTVSS	low polyreactivity
QVQLVDSGGGLVQAGGSLRLSCAASGRTFLFNSMGWYRQATGKQRELVAGITWSSGSTYYADSVKGRITISRDNAKNTVYLQMNSLKPEDTAVYYCAAYHFHDNDYWGQGTQVTVSS	low polyreactivity
QVQLVDSGGGLVQAGGSLRLSCAASGRTFPSYGMGWYRQAPGKERELVAPITGGGSTYYADSVKGRFTISRDNAKNTVYLQINSLKPEDTAVYYCAKRPYYNRHYHYRSKYDYWGLGTQVTVSS	high polyreactivity
QVQLVDSGGGLVQAGGSLRLSCAASGRTFRLNDMGWYRQAPGKDRELVAAITRSGGSTYYADSVKGRFTISRDNAKNTVYFQMNSLKPEDTAVYYCNAVRSRYYDDYDYWGQGTQVTVSS	high polyreactivity
QVQLVDSGGGLVQAGGSLRLSCAASGRTFRSYAMGWYRQAPGKERELVAAITWNGGGTYYADSVKGRFTMSRDNAKNTVYLQMNSLKPEETAVYYCAGRGRTDSYWRFYHWGQGTQVTVSS	high polyreactivity
QVQLVDSGGGLVQAGGSLRLSCAASGRTFRTNAMGWYRQAPGKERELVAAISSNGGTTYYADSVKGRFTISRDNAKNTVYLQMNSLKPEDTAVYYCNIESQYLWPEFDYWGQGTQVTVSS	low polyreactivity
